According to patent publication US20170240604A1 (Harvard, published 2017):
Each block holds one binder with its values, some of them ahead of it. No end group written: not given here. fluorescein maleimide = fluorescein maleimide (label on cysteine)

Legend:
[1] = target: KRas (G12V)·GppNHp (human) (UniProt P01116); test: fluorescence polarization; FITC-labeled peptide at fixed concentration, KRas(G12V) GppNHp titrated 0.5 to 5000 nM; one-site fit with Hill coefficient
Rap1a (GppNHp-bound) = target: T1, Rap1a (GppNHp-bound) (UniProt P62834 1-167, limits assumed); test: fluorescence polarization, FITC-225-3 with GppNHp-bound Rap1a; FP, GppNHp-bound Rap1a
T1 construct: also called Rapla (so in the source)
T1 sequence: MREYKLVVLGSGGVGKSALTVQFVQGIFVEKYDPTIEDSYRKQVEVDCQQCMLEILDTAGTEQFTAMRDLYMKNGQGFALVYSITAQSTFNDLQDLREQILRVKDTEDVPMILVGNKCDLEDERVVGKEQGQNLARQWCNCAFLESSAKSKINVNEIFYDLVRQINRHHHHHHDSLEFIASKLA

Rab25 (GppNHp-bound) [2] = target: T2, Rab25 (GppNHp-bound) (UniProt P57735 1-213, limits assumed); test: fluorescence polarization, FITC-225-3 with GppNHp-bound Rab25; FP, GppNHp-bound Rab25; weak binding given as a number
T2 sequence (looked up): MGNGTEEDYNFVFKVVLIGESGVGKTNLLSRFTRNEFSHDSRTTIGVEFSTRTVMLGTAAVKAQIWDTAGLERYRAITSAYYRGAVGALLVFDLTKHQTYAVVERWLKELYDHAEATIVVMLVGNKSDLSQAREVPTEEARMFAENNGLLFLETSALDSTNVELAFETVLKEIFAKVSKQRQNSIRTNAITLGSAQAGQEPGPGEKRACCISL

NRas·GppNHp = NRas·GppNHp (UniProt P01111); test: fluorescence polarization, FITC-225-3 with GppNHp-bound NRas
HRas·GppNHp = HRas·GppNHp (UniProt P01112 1-177, limits assumed); test: fluorescence polarization, FITC-225-3 with GppNHp-bound HRas
Rab25 (GppNHp-bound) [3] = target: T2, Rab25 (GppNHp-bound); test: fluorescence polarization; FITC-labeled 225-3 at fixed concentration, protein titrated; one-site specific binding fit with Hill coefficient
RalA = target: T3, RalA (UniProt P11233 1-178, limits assumed); test: as above
T3 construct: also called RalA protein
T3 sequence: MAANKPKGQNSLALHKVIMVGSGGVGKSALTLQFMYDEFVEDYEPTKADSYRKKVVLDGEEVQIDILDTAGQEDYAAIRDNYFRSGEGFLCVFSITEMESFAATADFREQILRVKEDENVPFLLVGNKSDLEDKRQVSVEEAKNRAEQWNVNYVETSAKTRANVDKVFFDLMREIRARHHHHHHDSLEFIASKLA

[4] = target: K-Ras (mutation and nucleotide state not stated where it is used) (UniProt P01116); test: fluorescence polarization

Kd [1]: 340 nM
Binder: GC(fluorescein maleimide)GGPRRPRRPAYPGDDASIEDLHEYWARLWNYLYAVA [225-3 R6A]

Kd [1]: 84 nM
Binder: GC(fluorescein maleimide)GGPRRPARPRYPGDDASIEDLHEYWARLWNYLYAVA [225-3 R3A]

Kd [1]: 200 nM
Binder: GC(fluorescein maleimide)GGPRRPRRPRYPGDDASIEDLHEYWARLWNYLAAVA [225-3 Y29A]

Kd (Rap1a (GppNHp-bound)): 3500 nM | Kd (Rab25 (GppNHp-bound) [2]): ~10000 nM | Kd (NRas·GppNHp): 45 nM | Kd (HRas·GppNHp): 45 nM | Kd (Rab25 (GppNHp-bound) [3]): > 5000 nM | Kd (RalA): > 5000 nM
B1: 225-3 (peptide)
peptide: GCGGPRRPRRPRYPGDDASIEDLHEYWARLWNYLYAVA
modifications: also: Cys2 labelled with fluorescein-maleimide or biotin-PEG2-maleimide, or unlabelled, depending on assay, non-covalent head-to-tail homodimer
notes: Recombinant, TEV-cleaved

Kd [1]: 170 nM
Binder: GC(fluorescein maleimide)GGPRRPRRPRYPGDDASIEDLAEYWARLWNYLYAVA [225-3 H18A]

Kd [4]: 6 nM
Binder: GRRPRRPRCPGDDASIEDLHEYWARLWNYLYAVA (also: FITC label, site not given here) [RDA3]

Kd [1]: 550 nM
Binder: GC(fluorescein maleimide)GGPRRPRRPRYPGDAASIEDLHEYWARLWNYLYAVA [225-3 D11A]
